The target of series [1] is Cys91 (UniProt position 91, PESPQCGFSSL). Kind of series: chemical modification. The following applies: room temperature; not stated (100 mM buffers, no added salt stated); 100 mM citrate buffers from pH 2.0 to 6.0; 100 mM phosphate buffers from pH 6.5 to 8.0; reduced (TCEP pre-reduced, desalted) apo monomer, 10 µM.
In series [2] the test system is Cys. The note with it: cited from earlier work.
Series [3] deals with T1, AtGRXS15 (reduced monomer) (Arabidopsis thaliana, UniProt Q8LBK6).
T1 construct: gene GRXS15; about 17 kDa on mPEG24 gel
T1 sequence (Q8LBK6 38-169): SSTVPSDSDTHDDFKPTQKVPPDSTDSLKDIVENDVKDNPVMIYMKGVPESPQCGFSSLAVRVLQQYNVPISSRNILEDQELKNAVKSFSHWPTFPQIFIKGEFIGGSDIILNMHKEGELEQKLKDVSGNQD
As to the kind of experiment: mBBr fluorescence titration of remaining free thiol. It is filed as binding. The following applies: oxidant concentration for half-maximal protein thiol oxidation, no equilibrium or Michaelis constant; covalent (Cys91); 5 µM protein, 1 h, RT, 30 mM Tris-HCl pH 8.0, 200 mM NaCl.

Series [4] deals with the molecule itself. As to the kind of experiment: non-reducing SDS-PAGE after oxidation and thiol alkylation (mPEG24); pre-reduced AtGRXS15 (13 µM) incubated with 5- or 10-fold molar excess of H2O2, DTTox, GSSG or GSNO for 2 h at RT; TCA precipitation, mPEG24 alkylation, non-reducing SDS-PAGE; dimer mainly with H2O2, to some extent with GSSG and GSNO, no oxidation with DTTox.

By pKa is commonly meant the negative logarithm of the acid dissociation constant. What is called stoichiometry N is a count of units in the complex or per binding partner.

For the molecule “Glutaredoxin S15, mitochondrial (AtGRXS15) (Arabidopsis thaliana)”, the pKa in series [1] was 4.0 ± 0.1. For the molecule “Monothiol glutaredoxin 5, mitochondrial (Grx5) (Saccharomyces cerevisiae)”, the pKa in series [2] was about 5.0.

`N[C@@H](CCC(=O)N[C@@H](CSN=O)C(=O)NCC(=O)O)C(=O)O` [GSNO]: the S0.5 in series [3] came out at 21 ± 1 µM. On to “Glutaredoxin S16 (AtGRXS16) (Arabidopsis thaliana)”, for which the pKa in series [2] was about 3.9.

B1: Arabidopsis thaliana mitochondrial glutaredoxin S15 (natural protein, UniProt Q8LBK6 38-169, looked up)
chain: SSTVPSDSDTHDDFKPTQKVPPDSTDSLKDIVENDVKDNPVMIYMKGVPESPQCGFSSLAVRVLQQYNVPISSRNILEDQELKNAVKSFSHWPTFPQIFIKGEFIGGSDIILNMHKEGELEQKLKDVSGNQD
notes: single cysteine Cys91 in the CGFS motif; no tag is named; The fractions kept after the last SEC step were the monomeric ones; The dimer seen after oxidation is covalent (intermolecular disulfide); also called AtGRXS15; GRXS15; source: E. coli C41(DE3) with pSBET helper plasmid, purified (ammonium sulfate, SEC, Q-sepharose, Superdex S75); pre-reduced with TCEP
B1: the “stoichiometry N” value in series [4] came out at 2.
